Results: patent US20080194482A1, “Selective Apac2 Receptor Peptide Agonists” (priority 2005, published 2008)
Numbered stars: 1 amine (or outer) side, 2 acyl side, 3 side chain; on linkers, the order of the positions; unused ones are H or OH. Square brackets hold non-standard residues; d marks the D form. Ends that are not written are not given here. Peptide text beside a SMILES is read from it. * marks the point of attachment. Tyr(OMe) = O-methyl-tyrosine, COc1ccc(C[C@H](N[*:1])C(=O)[*:2])cc1; Orn = NCCC[C@H](N)C(=O)O; Hexanoyl = CCCCCC(=O)*; Aib = CC(C)(N)C(=O)O

Columns and labels:
human PAC1 = target: T1, human PAC1 (Homo sapiens, UniProt P41586); assay: Filter binding assay, 125I-labeled PACAP-27 tracer, PAC1 membranes; settings: read-out: Human PAC1 Receptor Binding (IC50; nM)
T1 construct: expressed in transfected cells
T1 sequence (P41586 21-468): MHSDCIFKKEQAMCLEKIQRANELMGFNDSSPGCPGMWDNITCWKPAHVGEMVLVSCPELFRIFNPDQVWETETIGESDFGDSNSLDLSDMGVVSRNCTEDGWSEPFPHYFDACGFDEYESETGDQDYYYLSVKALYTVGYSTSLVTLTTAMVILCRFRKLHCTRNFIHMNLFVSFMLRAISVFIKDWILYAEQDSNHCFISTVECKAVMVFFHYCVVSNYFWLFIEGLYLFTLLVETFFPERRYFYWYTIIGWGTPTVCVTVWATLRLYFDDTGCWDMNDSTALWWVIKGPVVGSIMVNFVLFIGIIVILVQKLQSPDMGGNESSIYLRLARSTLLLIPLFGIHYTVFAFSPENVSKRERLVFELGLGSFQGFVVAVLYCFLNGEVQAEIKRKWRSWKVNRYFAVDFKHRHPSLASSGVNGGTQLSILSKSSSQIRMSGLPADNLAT
Experimental: For this assay, the solutions and equipment include:
Presoak solution: 0.5% Polyethyleneamine in Aqua dest
Buffer for flushing filter plates: 25 mM HEPES pH 7.4
Blocking buffer: 25 mM HEPES pH 7.4; 0.2% protease free BSA
Assay buffer: 25 mM HEPES pH 7.4; 0.5% protease free BSA
Dilution and assay plate: PS-Microplate, U form
Filtration Plate: Multiscreen FB Opaque Plate; 1.0 μM Type B Glasfiber filter
In order to prepare the filter plates, the presoak solution is aspirated by vacuum filtration. The plates are flushed twice with 200 μL flush buffer. 200 μL blocking buffer is added to the filter plate. The filter plate is then incubated with 200 μL presoak solution for 1 hour at room temperature.
The assay plate is filled with 25 μL assay buffer, 25 μL membranes (2.5 μg) suspended in assay buffer, 25 μL compound (agonist) in assay buffer, and 25 μL tracer (about 40000 cpm) in assay buffer. The filled plate is incubated for 1 hour with shaking.
The transfer from assay plate to filter plate is conducted. The blocking buffer is aspirated by vacuum filtration and washed two times with flush buffer. 90 μL is transferred from the assay plate to the filter plate. The 90 μL transferred from assay plate is aspirated and washed three times with 200 μL flush buffer. The plastic support is removed. It is dried for 1 hour at 60° C. 30 μL Microscint is added. The count is performed.

rat VPAC2 receptor = target: T2, rat VPAC2 receptor (rat, UniProt P35000 23-437); assay: cell-based or functional assay
T2 sequence (looked up): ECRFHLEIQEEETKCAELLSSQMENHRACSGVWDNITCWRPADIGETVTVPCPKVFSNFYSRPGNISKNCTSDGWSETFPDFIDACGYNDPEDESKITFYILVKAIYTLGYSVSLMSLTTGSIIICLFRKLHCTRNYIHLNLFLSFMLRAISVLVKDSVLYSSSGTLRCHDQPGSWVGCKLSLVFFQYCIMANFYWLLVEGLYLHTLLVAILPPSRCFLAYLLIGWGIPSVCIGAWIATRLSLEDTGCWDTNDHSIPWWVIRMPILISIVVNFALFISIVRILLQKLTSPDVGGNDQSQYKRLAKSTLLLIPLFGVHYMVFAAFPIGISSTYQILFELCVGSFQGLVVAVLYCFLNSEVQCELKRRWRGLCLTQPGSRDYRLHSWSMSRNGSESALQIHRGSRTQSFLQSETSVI

human VPAC2 receptor = target: T3, human VPAC2 receptor (human, UniProt P41587 24-438); assay: cell-based or functional assay
T3 sequence (looked up): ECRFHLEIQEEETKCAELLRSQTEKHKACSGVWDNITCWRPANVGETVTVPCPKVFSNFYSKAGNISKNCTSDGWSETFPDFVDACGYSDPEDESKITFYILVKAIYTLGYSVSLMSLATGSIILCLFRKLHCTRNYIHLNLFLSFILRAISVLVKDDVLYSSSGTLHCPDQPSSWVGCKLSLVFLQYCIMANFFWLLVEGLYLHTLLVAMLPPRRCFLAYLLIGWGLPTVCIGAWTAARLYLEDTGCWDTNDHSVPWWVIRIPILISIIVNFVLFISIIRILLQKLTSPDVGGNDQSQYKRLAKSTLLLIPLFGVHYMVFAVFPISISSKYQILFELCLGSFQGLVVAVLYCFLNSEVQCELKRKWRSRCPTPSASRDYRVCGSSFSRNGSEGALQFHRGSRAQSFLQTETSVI

CCCCCC(=O)N[C@@H](Cc1c[nH]cn1)C(=O)N[C@@H](CO)C(=O)N[C@@H](CC(=O)O)C(=O)N[C@@H](C)C(=O)N[C@H](C(=O)N[C@@H](Cc1ccccc1)C(=O)N[C@H](C(=O)N[C@@H](CC(=O)O)C(=O)N[C@@H](CC(N)=O)C(=O)N[C@@H](Cc1ccc(O)cc1)C(=O)N[C@H](C(=O)N[C@@H](CCCN)C(=O)N[C@@H](CC(C)C)C(=O)N[C@@H](CCCNC(=N)N)C(=O)NC(C)(C)C(=O)N[C@@H](CCC(N)=O)C(=O)N[C@@H](CO)C(=O)N[C@@H](C)C(=O)N[C@@H](C)C(=O)NC(C)(C)C(=O)N[C@@H](CCCCN)C(=O)N[C@@H](Cc1ccc(O)cc1)C(=O)N[C@@H](CC(C)C)C(=O)N[C@@H](CCC(N)=O)C(=O)N[C@@H](CO)C(=O)N[C@H](C(=O)N[C@@H](CCCN)C(=O)N[C@@H](CC(N)=O)C(=O)N[C@@H](CCCN)C(=O)NCC(=O)NCC(=O)N1CCC[C@H]1C(=O)N[C@@H](CO)C(=O)N[C@@H](CO)C(=O)NCC(=O)N[C@@H](C)C(=O)N1CCC[C@H]1C(=O)N1CCC[C@H]1C(=O)N1CCC[C@H]1C(=O)N[C@@H](CO)C(=O)O)[C@@H](C)CC)[C@@H](C)O)[C@@H](C)O)C(C)C [Agonist P389] (Hexanoyl-HSDAVFTDNYT[Orn]LR[Aib]QSAA[Aib]KYLQSI[Orn]N[Orn]GGPSSGAPPPS-OH; C-terminus assumed)
IC50 (human PAC1): > 25000 nM

CCCCCC(=O)N[C@@H](Cc1c[nH]cn1)C(=O)N[C@@H](CO)C(=O)N[C@@H](CC(=O)O)C(=O)N[C@@H](C)C(=O)N[C@H](C(=O)N[C@@H](Cc1ccccc1)C(=O)N[C@H](C(=O)N[C@@H](CC(=O)O)C(=O)N[C@@H](CC(N)=O)C(=O)N[C@@H](Cc1ccc(O)cc1)C(=O)N[C@H](C(=O)N[C@@H](CCCN)C(=O)N[C@@H](CC(C)C)C(=O)N[C@@H](CCCNC(=N)N)C(=O)NC(C)(C)C(=O)N[C@@H](CCC(N)=O)C(=O)N[C@H](C(=O)N[C@@H](C)C(=O)N[C@@H](C)C(=O)NC(C)(C)C(=O)N[C@@H](CCCCN)C(=O)N[C@@H](CO)C(=O)N[C@@H](CC(C)C)C(=O)N[C@@H](CCC(N)=O)C(=O)N[C@@H](CO)C(=O)N[C@H](C(=O)N[C@@H](CCCN)C(=O)N[C@@H](CC(N)=O)C(=O)N[C@@H](CCCN)C(=O)NCC(=O)NCC(=O)N1CCC[C@H]1C(=O)N[C@@H](CO)C(=O)N[C@@H](CO)C(=O)NCC(=O)N[C@@H](C)C(=O)N1CCC[C@H]1C(=O)N1CCC[C@H]1C(=O)N1CCC[C@H]1C(=O)N[C@@H](CO)C(=O)O)[C@@H](C)CC)C(C)C)[C@@H](C)O)[C@@H](C)O)C(C)C [Agonist P385] (Hexanoyl-HSDAVFTDNYT[Orn]LR[Aib]QVAA[Aib]KSLQSI[Orn]N[Orn]GGPSSGAPPPS-OH; C-terminus assumed)
IC50 (human PAC1): > 25000 nM

B1: VPAC2 receptor peptide agonist P405 (peptide)
peptide: Hexanoyl-HSDAVFTDNYTR[Aib]R[Aib]QVAA[Aib]KYLQSIK[Aib]KGGPSSGAPPPS
Rat VPAC2 Receptor: DiscoveRx (EC50; nM), cAMP generation (rat VPAC2 receptor): 0.04 nM

B2: VPAC2 receptor peptide agonist P409 (peptide)
peptide: Hexanoyl-HSEAVFTEQ[Tyr(OMe)]TR[Aib]R[Aib]QLAA[Aib]KYLQSIK[Aib]KGGPSSGAPPPS
Human VPAC2 Receptor: Alpha Screen (EC50; nM), cAMP generation (human VPAC2 receptor): 0.19 nM

B3: VPAC2 receptor peptide agonist P407 (peptide)
peptide: Hexanoyl-HSDAVFTDQYTR[Aib]R[Aib]QLAA[Aib]KYLQSIK[Aib]KGGPSSGAPPPS
Human VPAC2 Receptor: Alpha Screen (EC50; nM), cAMP generation (human VPAC2 receptor): 0.12 nM
Rat VPAC2 Receptor: DiscoveRx (EC50; nM), cAMP generation (rat VPAC2 receptor): 0.03 nM
